Assay results from the DeepSol protein solubility set.

test: soluble on expression in E. coli; label from the status in PepcDB or PDB records

Sequence	soluble on expression in E. coli
MIEIPSDLHKDLVPLVFLLGDWAGAGVHDFPGAEKCNFGQEVSFTHDGRDFLEYQSHTWVLDNDGNKVRPLESEHGFWRIDANRKVEVTMTRDDGVIEIWYGELADQKPQIDLVTDAVARTAASQPYTGGKRLYGYVKSDLMWVGEKQTPEVELRPYMSAHLKKVVTPEDVERWAKALPDDMPDDGIAFFKLEHHHHHH	not soluble
MAVKQPVPKDPAKVERIMHAAMHTFAVSGYRDAKTDVIASAATVSKGLLFHYYGSKQRLYLATVQLATDTIIATINQQVFDVPDDLVTLMVRSARYKAAFGKDHPDEMKVLIDAYGALERLPVKIQAQMKILYTKSMTISREMISQVLDKMTLRADVDRDATIALIMGVYNQIFMEFQTYMRENHQVESMADIEWVVSRAKTYMGILEHGFMAADLDDQQ	not soluble
MSLKTIHITHPHHLIKEEQAKSVMALGYFDGVHLGHQKVIGTAKQIAEEKGLTLAVMTFHPHPSHVLGRDKEPKDLITPLEDKINQIEQLGTEVLYVVKFNEVFASLSPKQFIDQYIIGLNVQHAVAGFDFTYGKYGKGTMKTMPDDLDGKAGCTMVEKLTEQDKKISSSYIRTALQNGDVELANVLLGQPYFIKGIVIHGDKRGRTIGFPTANVGLNNSYIVPPTGVYAVKAEVNGEVYNGVCNIGYKPTFYEKRPEQPSIEVNLFDFNQEVYGAAIKIEWYKRIRSERKFNGIKELTEQIEKDKQEAIRYFSNLRKEGGSHHHHHH	soluble
MSLKTWFITGTSSGFGKELATIVARQSDTQLIAAARHTDDLAYLDVFDATRIEKVSIDVTNESQIKTGVAQAIQRFGTIDVLVNNAGLGYFSTIEESDMAKVRYMFEVNVMGLANVTRTVLPTMRAHHAGIIINLSSALALTTLPTMGFYSATKYAVEGYSDTLRQEVKDLGIQIMTVEPSGARTQWSGRSSQKMVPTIADYAAFSDAITTVSDSVTQAPGNPHRIAQVMFDQANLAEVPAHLPLGEFAYQGGLANLQSIVSEIKSREDLSLSTDEGHHHHHH	not soluble
SNAEELIEIREARMDDLDTIAKFNYNLAKETEGKELDMDVLTKGVKALLLDERKGKYHVYTVFDKVVAQIMYTYEWSDWRNGNFLWIQSVYVDKEYRRKGIFNYLFNYIKNICDKDENIVGMRLYVEKENINAKATYESLNMYECDYNMYEYEVIHS	soluble
MEKRNIQVTRHFVCADQLQQISETVIACLGQEDLITISGGLGPISDDKTRDAVAKAVRQPLFHHEDVWQTIKGQLGWLGSTPDSNNARQALFPETAKVLDNPTGTAPGFYLSCGESILVILTGSLTQAFALLENYLEHGEKKYSSVSRARYAWILIGIDESAIAHWVDCQLANELFERHFYGKALMFSYNWLASHQRFWLSI	not soluble
PLSEAELALFDPYSKEESTGPSPTHTGELAAIEVESKRLDQEPWEPGGQEEEEAEDGEPAPAYLGQATELITQALRNEKAGAYAAALQGYQDGVHILLQGVSGDPSPARREGVKKKAAEYLKRAEMLHTHLP	soluble
MKTVRESTTLYNFLGSHNPYWRLTESSDVLRFSTTETTEPDRTLQLSAEQAARIREMTVITSSLMMSLTVDESDLSVHLVGRKINKREWAGNASAWHDTPAVARDLSHGLSFAEQVVSEAHSAIVILDSRGNIQRFNRLCEDYTGLKEHDVIGQSVFKLFMSRREAAASRRNNRVFFRSGNAYEVELWIPTCKGQRLFLFRNKFVHSGSGKNEIFLICSGTDITEERRAQERLRILANTDSITGLPNRNAMQDLIDHAINHADNNKVGVVYLDLDNFKKVNDAYGHLFGDQLLRDVSLAILSCLEHDQVLARPGGDEFLVLASNTSQSALEAMASRILTRLRLPFRIGLIEVYTSCSVGIALSPEHGSDSTAIIRHADTAMYTAKEGGRGQFCVFTPEMNQRVFEYLWLDTNLRKALENDQLVIHYQPKITWRGEVRSLEALVRWQSPERGLIPPLDFISYAEESGLIVPLGRWVILDVVRQVAKWRDKGINLRVAVNISARQLADQTIFTALKQVLQELNFEYCPIDVELTESCLIENDELALSVIQQFSQLGAQVHLDDFGTGYSSLSQLARFPIDAIKLDQVFVRDIHKQPVSQSLVRAIVAVAQALNLQVIAEGVESAKEDAFLTKNGINERQGFLFAKPMPAVAFERWYKRYLKRA	not soluble
MAHHHHHHMCLLIIEHLFYSPCTVTTVLSLKLFGGGEKTGKMSDVPKSQVGTDAKVAVAKKYTGEYYVKGMVGDKKSFAIEHSRGRQKKHTVNEFCVGDAIGRGAFAEVFQCWRPEEPHIVYAMKKIRKDLIVKRKQSLNVHTERDLLSDAKLRQKRVSCPWITDLVVAFQDQDFLYIVTEYCSGGDLISWLIRYDVFPEETARFYFVELVLALNALHKMGYVHRDVKPDNVLIDREGHVKLADFGLSKRDPDQAESTSVADDSYLTEDVTVDDDVKKRFRDKKERKVMFFSTVGSPAYIAPEVLIGRGYDYSCDWWSAGVILYEMIFGYPPFFNDNNTATAKKIIQFKEHLEFPKDQTTVSKEAIDLISHLIADSKERYGFEEIIRHPFCKGVPLTDSIRNEKAPFSVELNSPRDLQYFEPAPDNADIQKQPMTAVSREDQSVFVGFTSKLCDRNQSTTWSRALGRFHELQNFSDDD	not soluble
MSTLGHQYDNSLVSNAFGFLRLPMNFQPYDSDADWVITGVPFDMATSGRAGGRHGPAAIRQVSTNLAWEHNRFPWNFDMRERLNVVDCGDLVYAFGDAREMSEKLQAHAEKLLAAGKRMLSFGGDHFVTLPLLRAHAKHFGKMALVHFDAHTDTYANGCEFDHGTMFYTAPKEGLIDPNHSVQIGIRTEFDKDNGFTVLDACQVNDRSVDDVIAQVKQIVGDMPVYLTFDIDCLDPAFAPGTGTPVIGGLTSDRAIKLVRGLKDLNIVGMDVVEVAPAYDQSEITALAAATLALEMLYIQAAKKGE	soluble
MTNATIAPTTTAAPVTKSVDAPTADENTPLFSPSLISPDVLAVLPADYTIRPLCRSDYKRGYLDVLRVLTTVGDINEEQWNSRYEWIRARSDEYYLLVVCDGEGRIVGTGSLVVERKFIHSLGMVGHIEDIAVEKGQQGKKLGLRIIQALDYVAEKVGCYKTILDCSEANEGFYIKCGFKRAGLEMAHYY	soluble
MSANFTDKNGRQSKGVLLLRTLAMPSDTNANGDIFGGWIMSQMDMGGAILAKEIAHGRVVTVAVESMNFIKPISVGDVVCCYGQCLKVGRSSIKIKVEVWVKKVASEPIGERYCVTDAVFTFVAVDNNGRSRTIPRENNQELEKALALISEQPLLEHHHHHH	not soluble
MGSDKIHHHHHHMTKSLNGLRILNTRPREQAQVLNKKIIESGGIPIDCPTMEIMASETNWINNLPDLTSVNQAIFVSTNAVRYFMMELASKNINWPNSIRVTAIGKGTSRVLNEFNIQVSDVPELPDSEHLLTLNSLQQIRNQTILLVKGEGGRQLIEEYLMLKGAKLCLLSVYKRVMPAIDQEFINSLWRDDLVDIILLTSEQSIHNLFKMFSIEGQMWLQNKPCLVISDRLAKVASLFGIKKILISHPERMIGALFDYKD	not soluble
GAMGSPKEHIDLYQQIKWNGWGDTRKFLHQLKPSGTIAMTTPEVSSVPLPSLRGFIKKELTLPGEEDKPFVLDETPALQIENIHVDPPKQYPEFVRELKAFFLPDQLKDDKLARITHTFGKSLRDLIRVRIGQVKNAPDLIVLPHSHEEVERLVQLAHKYNVVIIPMGGGSNIVGAIEPVSNERFTVSIDMRRMNKVLWVDRREMTACIQVGIMGPELEKQLHKQGVSLGHDPDSFEFSTLGGWLATCSSGHQSDKYGDIEDMAVSFRTVTPTGTLELRNGARSGAGINYKHIILGSEGTLGIITEAVMKVHAVPQAVEYYGFLFPTFAHAVSALQQIRSSEVIPTMIRVYDPEETQLSFAWKPSKGAVSEFTSAMVKKYLHYIRSFDFKNVCLSIIGFEGPKKVVDFHRTSVFDILSKNAAFGLGSAPGKTWAEKRYDLPYIRDFLLDHNMWVDVAETTVSYANLQTLWKDAKQTFVKHFKDQGIPAWICAHISHTYTNGVCLYFIFASKQNENKDMAQYIEAKKLMTDIIFKYGGSLSHHHGVGYEHVPWMTRYATRGWINVYRSLKETIDPKDICNPRKLI	soluble
MGSDKIHHHHHHMELASSYDKHDIRYLSASEMAELRVTNVAANQSPADTSQVSTRPDPAPVPVPAPDARQQVESAAVAFVKDLIEHHGDNDDFALAQVQASYARTVDYYGKLTNLSSIIQDKRNYYRRWPERIYNVRNDSIVVTCANDRCMVSGIYDWVVRSPSIHKQDKGASNFSYTISTGPYPKIIAETSKVRS	not soluble
MHSRSVKFPSSKGHQIAGTIDFPDGTPRAFAMFAHCFTGSRFTPGAARVSKELAERGIACLRFDFPGLGQSEGIFSETSFSENVADIKAAADWLGQHYSAPQLLIGHSLGGAASLKAATTLKCLRGVATIGAPFDPAHAVLHFADRIGEVDENGAVTLTLGGRDITISREFLEDLADTNPEAYLPRLRKPLLILHSPIDQTVGVDNAQLIFRTTRYPKSLVALDKVDHLLTKQGSAQQAARIINTWFEQHIVAENEDPNADTLPEGVAVAQSIPAGKFADIVHTGTHSFTTDREKALGGKNLGVSPTSLLISALAAATSQEIRLAAKESRIHSLEDVNVTISKTVGDGERVHLRRNISLVGDLTDDERHELLLAARNSDIEKMLQGNVTINDQDV	not soluble
MLKSKKRLLNPDYLFVTQDESSFYLDSNRSKCWAIKGSKPIKFISGSKTKINIGGFYTENRDFYWYDLGIKKNTDSFLKSLIKLKKDIGRKIFLLLDRATWHKSKKAREFFQNNKYWLQILLFPPATPDRNPTEYCWKTTREELTSIKSFKNIKVLKEELDEFWEKHVFTHKMSHYLKWLEHHHHHH	not soluble
GHMQEKPPKELVNEWSLKIRKEMRVVDRQIRDIQREEEKVKRSVKDAAKKGQKDVCIVLAKEMIRSRKAVSKLYASKAHMNSVLMGMKNQLAVLRVAGSLQKSTEVMKAMQSLVKIPEIQATMRELSKEMMKAGIIEEMLEDTFESMDDQEEMEEEAEMEIDRILFEITAGALGKAPSKVTDALPEPEPPGAMAASEDEEEEEEALEAMQSRLATLRS	soluble
MSLTHCKNQHCGGELGDYTGYIESPNYPGDYPANAECVWHIAPPPKRRILIVVPEIFLPIEDECGDVLVMRKSASPTSITTYETCQTYERPIAFTSRSRKLWIQFKSNEGNSGKGFQVPYVTYDEDYQQLIEDIVRDGRLYASENHQEILKDKKLIKALFDVLAHPQNYFKYTAQESKEMFPRSFIKLLRSKVSRFLRPYKEGHHHHHH	not soluble
SLDITFIDETEKVPTEEIKEIENLLQFAAGFLEIAEDTEMSVTFTDNAGIQMINRDYRGKDMPTDVISFALEDEGEDELPIIFDDEELAELPRNLGDLIISTERAAEQAVEYGHTLEREMGFLAVHGFLHLNGYDHMEPEDEKEMFGLQKEILDAYGLKR	soluble
MKLMAQLGKLLKEQKYDRQLRLWGDHGQEALESAHVCLINATATGTEILKNLVLPGIGSFTIIDGNQVSGEDAGNNFFLQRSSIGKNRAEAAMEFLQELNSDVSGSFVEESPENLLDNDPSFFCRFTVVVATQLPESTSLRLADVLWNSQIPLLICRTYGLVGYMRIIIKEHPVIESHPDNALEDLRLDKPFPELREHFQSYDLDHMEKKDHSHTPWIVIIAKYLAQWYSETNGRIPKTYKEKEDFRDLIRQGILKNENGAPEDEENFEEAIKNVNTALNTTQIPSSIEDIFNDDRCINITKQTPSFWILARALKEFVAKEGQGNLPVRGTIPDMIADSGKYIKLQNVYREKAKKDAAAVGNHVAKLLQSIGQAPESISEKELKLLCSNSAFLRVVRCRSLAEEYGLDTINKDEIISSMDNPDNEIVLYLMLRAVDRFHKQQGRYPGVSNYQVEEDIGKLKSCLTGFLQEYGLSVMVKDDYVHEFCRYGAAEPHTIAAFLGGAAAQEVIKIITKQFVIFNNTYIYSGMSQTSATFQL	soluble
